Reference: publication PMC11257983 (2024)

B1: GST-HYP [Drosophila] / Myc-MEK [Drosophila] (parent)
chain 1: MSKNKLNLVLPPVNTEATVAAATVAPTPPFKTPSGTDTHSLLGKPKTSIDALTETLEGLDMGDTERKRIKMFLSQKEKIGELSDEDLEKLGELGSGNGGVVMKVRHTHTHLIMARKLIHLEVKPAIKKQILRELKVLHECNFPHIVGFYGAFYSDGEISICMEYMDGGSLDLILKRAGRIPESILGRITLAVLKGLSYLRDNHAIIHRDVKPSNILVNSSGEIKICDFGVSGQLIDSMANSFVGTRSYMSPERLQGTHYSVQSDIWSLGLSLVEMAIGMYPIPPPNTATLESIFADNAEESGQPTDEPRAMAIFELLDYIVNEPPPKLEHKIFSTEFKDFVDICLKKQPDERADLKTLLSHPWIRKAELEEVDISGWVCKTMDLPPSTPKRNTSPN
chain 2: MGEETINSTQNKTRTKTTRPKAVYLWTVSDVLKWYRRHCGEYTQYEQLFAQHDITGRALLRITDSSLQRMGVTDNRDREAIWREIVKQRLKTDIMEIRDMERLNIY
B2: Flag-CNK^2–549 [Drosophila] / V5-KSR [Drosophila] (parent)
chain 1: MSSNNNAPASAPDTGSTNANDPISGSLSVDSNLVIIQDMIDLSANHLEGLRTQCAISSTLTQQEIRCLESKLVRYFSELLLAKMRLNERIPANGLVPHTTGNELRQWLRVVGLSQGTLTACLARLTTLEQSLRLSDEEIRQLLADSPSQREEEELRRLTRAMQNLRKCMESLESGTAASNNDPEQWHWDSWDRPTHIHRGSVGNIGLGNNSTASPRTHHRQHGVKGKNSALANSTNFKSGRQSPSATEELNSTQGSQLTLTLTPSPPNSPFTPSSGLSSSLNGTPQRSRGTPPPARKHQTLLSQSHVQVDGEQLARNRLPTDPSPDSHSSTSSDIFVDPNTNASSGGSSSNVLMVPCSPGVGHVGMGHAIKHRFTKALGFMATCTLCQKQVFHRWMKCTDCKYICHKSCAPHVPPSCGLPREYVDEFRHIKEQGGYASLPHVHGAAKGSPLVKKSTLGKPLHQQHGDSSSPSSSCTSSTPSSPALFQQRERELDQAGSSSSANLLPTPSLGKHQPSQFNFPNVTVTSSGGSGGVSLISNEPVPEQFPTAPATANGGLDSLVSSSNGHMSSLIGSQTSNASTAATLTGSLVNSTTTTSTCSFFPRKLSTAGVDKRTPFTSEYTDTHKSNDSDKTVSLSGSASTDSDRTPVRVDSTEDGDSGQWRQNSISLKEWDIPYGDLLLLERIGQGRFGTVHRALWHGDVAVKLLNEDYLQDEHMLETFRSEVANFKNTRHENLVLFMGACMNPPYLAIVTSLCKGNTLYTYIHQRREKFAMNRTLLIAQQIAQGMGYLHAREIIHKDLRTKNIFIENGKVIITDFGLFSSTKLLYCDMGLGVPHNWLCYLAPELIRALQPEKPRGECLEFTPYSDVYSFGTVWYELICGEFTFKDQPAESIIWQVGRGMKQSLANLQSGRDVKDLLMLCWTYEKEHRPQFARLLSLLEHLPKKRLARSPSHPVNLSRSAESVF
chain 2: AYINIAEWTPDQVTDWIKGLDESMKGYLYEFSKQEIGGRALLNIRPYELENLGMLRIGHQEIVLEAVENLRNFHYHLKNDNLQFMALHVATAAKNLHRELARNHAESTKIDTRILHDITRTIATLKPLVGSLERTPFRKQEMYREYCGNVLKCGLELATIAHRDRFALQPVPAIRQSAERLENLANFVIQDISDPMVLQPASLNLVTLKKRESELGFNIESSYNGIHRVTDIKYNSPAHNSGKIEDGDEIVQINYQTVVGWQHRTVLEHLREALPDVVLTVKKRPKHTKMFGQIYMQPYRLPSKKRNMAARWAAQMPSPRAAFLTLDTEQLATGGTGSAVPDPSKSLSSEKREVLTKANPVSSASDSDSSCSDIPTPTDPKLAAREIRLYYPKPRALLQRRNTICGCEYLSLKNSDLVVPSWHERKPGIGSPTNCDPGSPSIRDKSISFGYGLEMAARPTTCIGIAGDTSTDKARRMFHEARKLKQLTEDSQREFLVDRYKPGVSKVVRFDAKEDYVMKNEKFICNVENTILETFEPIPFADEGDEDA
B3: Flag-CNK^2–549 [Drosophila] / Myc-MEK [Drosophila] (parent)
chain 1: B1 chain 1
chain 2: B2 chain 2
B4: GST-HYP [Drosophila] / V5-KSR [Drosophila] (parent)
chain 1: B2 chain 1
chain 2: B1 chain 2

Variants of: B1
Assay: GST pull-down, immunoblot quantification
Conditions: with Myc-MEK [Drosophila]; S2 cells; GST-HYP, Flag-CNK2–549 + RRKM co-expressed; anti-Myc (MEK) blot; parent: 1

ratio to parent	Variant
0.68	chain 2 I97D
0.09	chain 2 L90D
0.04	chain 2 L90D I97D

Variants of: B2
Assay: GST pull-down, immunoblot quantification
Conditions: with V5-KSR [Drosophila], S2 cells, GST-HYP, Myc-MEK co-expressed, captured via GST-HYP, anti-V5 (KSR) blot, parent: 1

Variant	ratio to parent
chain 2 A40F	0.93
chain 2 K33D	0.95
chain 2 K109E	0.92
chain 2 H263A	0.9

Results, then the variant that gave them:

ratio to parent	Variant
0.89	chain 2 R264E
0.95	chain 2 T135F
0.89	chain 2 L267R
0.62	chain 2 M196E

Variants of: B2
Assay: GST pull-down, immunoblot quantification
Conditions: with Flag-CNK^2–549 [Drosophila]; S2 cells; Flag-CNK2–549, GST-HYP + RRM (Ha-RASV12, Pyo-RAF, Myc-MEK) co-expressed; captured via GST-HYP; anti-Myc (MEK) blot; parent: 1

ratio to parent	Variant
0.04	chain 1 K903D
0.07	chain 1 Y925D
1.23	chain 1 E926R
0.05	chain 1 M902D

Same assay, conditions: with Flag-CNK^2–549 [Drosophila]; S2 cells; Flag-CNK2–549, GST-HYP + RRM (Ha-RASV12, Pyo-RAF, Myc-MEK) co-expressed; captured via GST-HYP; anti-V5 (KSR) blot; parent: 1

ratio to parent	Variant
0.07	chain 1 K903D
0.12	chain 1 Y925D
1.07	chain 1 E926R
0.07	chain 1 M902D

Same assay, conditions: with V5-KSR [Drosophila]; S2 cells; GST-HYP + RRKM co-expressed; captured via GST-HYP; anti-V5 (KSR) blot; parent: 1

ratio to parent	Variant
0.66	chain 2 A66F F73R
0.16	chain 2 D80R K282D
0.79	chain 2 V251R
0.87	chain 2 F73R
0.82	chain 2 E249R
0.08	chain 2 E249R V251R
0.03	chain 2 K282D
0.61	chain 2 D80R
0.72	chain 2 F73R V251R
0.97	chain 2 A66F
0.16	chain 2 F73R E249R

Same assay, conditions: with V5-KSR [Drosophila]; S2 cells; Flag-CNK2–549, V5-KSR, Myc-MEK, GST-HYP co-expressed; captured via GST-HYP; anti-V5 (KSR) blot; parent: 1

ratio to parent	Variant
0.16	chain 2 Q83E
0.92	chain 2 N95E
0.99	chain 2 R45F
0.07	chain 2 N81W
0.15	chain 2 N81E
0.74	chain 2 Y75R
0.81	chain 2 R98E

Same assay, conditions: with V5-KSR [Drosophila]; S2 cells; GST-HYP, Flag-CNK2–549 + RRKM co-expressed; captured via GST-HYP; anti-V5 (KSR) blot; parent: 1

ratio to parent	Variant
0.14	chain 2 L151D
0.76	chain 2 I122D
0.01	chain 2 I122D L151D

Same assay, conditions: with V5-KSR [Drosophila], S2 cells, GST-HYP, Myc-MEK co-expressed, captured via GST-HYP, anti-V5 (KSR) blot, parent: 1

Variant	ratio to parent
chain 2 D194K V197E	0.05
chain 2 D194K	0.08

Now from value to variant:

ratio to parent	Variant
0.82	chain 2 Q199A
0.98	chain 2 S193A
0.49	chain 2 M196E
0.07	chain 2 V197E

Same assay, conditions: with V5-KSR [Drosophila]; S2 cells; GST-HYP + RRKM (Ha-RASV12, Pyo-RAF, V5-KSR, Myc-MEK) co-expressed; captured via GST-HYP; anti-V5 (KSR) blot; parent: 1

ratio to parent	Variant
0.73	chain 2 Q199A
1	chain 2 S193A
0.26	chain 2 M196E
0.04	chain 2 D194K
0.03	chain 2 V197E

Same assay, conditions: with Flag-CNK^2–549 [Drosophila]; S2 cells; Flag-CNK2–549, V5-KSR, Myc-MEK, GST-HYP co-expressed; captured via GST-HYP; anti-Myc (MEK) blot; parent: 1

ratio to parent	Variant
0.83	chain 1 R913E

Same assay, conditions: with Flag-CNK^2–549 [Drosophila]; S2 cells; Flag-CNK2–549, V5-KSR, Myc-MEK, GST-HYP co-expressed; captured via GST-HYP; anti-V5 (KSR) blot; parent: 1

ratio to parent	Variant
0.75	chain 1 R913E

Variants of: B3
Assay: GST pull-down, immunoblot quantification
Conditions: with Myc-MEK [Drosophila]; S2 cells; GST-HYP + RRKM co-expressed; captured via GST-HYP; anti-Myc (MEK) blot; parent: 1

Variant	ratio to parent
chain 2 E249R	0.76
chain 2 E249R V251R	0.06
chain 2 F73R V251R	0.5
chain 2 A66F	1.08
chain 2 F73R	0.82
chain 2 D80R K282D	0.34
chain 2 A66F F73R	0.48
chain 2 F73R E249R	0.13
chain 2 D80R	0.9

Results, then the variant that gave them:

ratio to parent	Variant
0.1	chain 2 K282D
0.78	chain 2 V251R

Same assay, conditions: with Myc-MEK [Drosophila]; S2 cells; GST-HYP + RRKM (Ha-RASV12, Pyo-RAF, V5-KSR, Myc-MEK) co-expressed; captured via GST-HYP; anti-MEK blot; parent: 1

ratio to parent	Variant
0.04	chain 2 V197E
1.01	chain 2 S193A
0.28	chain 2 M196E
0.68	chain 2 Q199A
0.05	chain 2 D194K

Same assay, conditions: with Myc-MEK [Drosophila]; S2 cells; GST-HYP, V5-KSR, Myc-MEK co-expressed; captured via GST-HYP; anti-MEK blot; parent: 1

Variant	ratio to parent
chain 2 D194K	0.05
chain 2 D194K V197E	0.02

The next lines start with the values.

ratio to parent	Variant
0.03	chain 2 V197E
1.09	chain 2 S193A
0.23	chain 2 M196E
0.62	chain 2 Q199A

Same assay, conditions: with Myc-MEK [Drosophila], S2 cells, Flag-CNK2–549, V5-KSR, GST-HYP co-expressed, captured via GST-HYP, anti-Myc (MEK) blot, parent: 1

ratio to parent	Variant
1.01	chain 2 R45F
0.05	chain 2 N81W
0.27	chain 2 N81E
0.04	chain 2 Q83E
0.68	chain 2 Y75R
0.94	chain 2 N95E
1.12	chain 2 R98E

Same assay, conditions: with Myc-MEK [Drosophila]; S2 cells; GST-HYP, Flag-CNK2–549 + RRKM co-expressed; captured via GST-HYP; anti-Myc (MEK) blot; parent: 1

ratio to parent	Variant
0.77	chain 2 I122D
0.01	chain 2 I122D L151D
0.05	chain 2 L151D

Same assay, conditions: with Flag-CNK^2–549 [Drosophila]; S2 cells; Flag-CNK2–549, V5-KSR, Myc-MEK, GST-HYP co-expressed; captured via GST-HYP; anti-Myc (MEK) blot; parent: 1

ratio to parent	Variant
0.56	chain 1 E323R

Same assay, conditions: with Flag-CNK^2–549 [Drosophila]; S2 cells; Flag-CNK2–549, V5-KSR, Myc-MEK, GST-HYP co-expressed; captured via GST-HYP; anti-V5 (KSR) blot; parent: 1

ratio to parent	Variant
0.66	chain 1 E323R

Variants of: B4
Assay: GST pull-down, immunoblot quantification
Conditions: with V5-KSR [Drosophila]; S2 cells; GST-HYP, Flag-CNK2–549 + RRKM co-expressed; anti-V5 (KSR) blot; parent: 1

ratio to parent	Variant
0.62	chain 2 I97D
0.13	chain 2 L90D
0.05	chain 2 L90D I97D
